Results reported in patent US20210032312A1 (Janssen / Centocor, published 2021).
Where a chain is given by its changes, count along the chain named. One block for each binder: values may come before it.

Legend:
[1] = biological target: T1, cynomolgus monkey CD8A on primary cynomolgus monkey CD8+ T cells (cynomolgus monkey, UniProt P01732 23-235 (human entry)); assay: flow cytometry, cyno CD8+ T cells, 2 uM FN3
T1 construct: also called Cyno CD8alpha
Description: (§1) Binding of the 190 ELISA hits to human and cynomologous monkey primary CD8 T cells was assessed by flow cytometry. The FN3 domain molecules were diluted to 2 μM and 0.2 μM in PBS and incubated with human or cynomologous monkey CD8+ T cells in 96-well format. After 1 hour at 4 C, the cells were washed once with PBS and then resuspended with an anti-FN3 domain antibody (PAB25) solution. Following this incubation, the cells were washed twice with PBS and a PE conjugated secondary antibody and a viability dye were added. Finally, cells were washed and resuspended in PBS for flow cytometric analysis using a BD Canto Instrument. Cells were gating on live cells and median fluorescence intensity of the bound Centyrins (PE channel) was calculated using Cytobank software.

[2] = biological target: T2, human CD8 alpha (CD8A) on primary human CD8+ T cells (human, UniProt P01732 22-235); assay: flow cytometry, human CD8+ T cells, 0.2 uM FN3
T2 construct: whole, on cells; also called hCD8A
T2 sequence (P01732 22-235): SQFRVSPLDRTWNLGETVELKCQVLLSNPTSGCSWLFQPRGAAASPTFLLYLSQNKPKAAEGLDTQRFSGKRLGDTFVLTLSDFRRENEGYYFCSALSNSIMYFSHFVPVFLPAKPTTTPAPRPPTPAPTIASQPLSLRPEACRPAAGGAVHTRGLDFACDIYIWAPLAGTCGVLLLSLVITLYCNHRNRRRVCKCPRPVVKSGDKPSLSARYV
Description: as §1

[3] = biological target: T2, human CD8 alpha (CD8A) on primary human …; assay: flow cytometry, human CD8+ T cells, 2 uM FN3
Description: as §1

[4] = biological target: T3, In house human CD8A-Fc (human, UniProt P01732 22-182, limits assumed); assay: SPR (ProteOn), captured hCD8A-Fc
T3 construct: Captured on goat anti-human Fc on a ProteOn GLC chip; also called hCD8A-Fc; recombinant human CD8 alpha; not shown: linker with flag (and polyhistidine) tag and Fc of human IgG1
T3 sequence (P01732 22-182 limits assumed): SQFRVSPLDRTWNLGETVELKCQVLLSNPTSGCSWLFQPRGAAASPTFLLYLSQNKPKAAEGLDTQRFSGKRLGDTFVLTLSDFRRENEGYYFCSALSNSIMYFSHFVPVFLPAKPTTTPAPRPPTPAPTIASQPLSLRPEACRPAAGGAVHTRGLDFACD
Description: Purified anti-CD8A FN3 domains were subjected to off-rate analysis using a Proteon surface plasmon resonance instrument in order to pick clones with the slowest off-rates for further characterization.
The immobilized GAH-Fc IgG densities averaged about 6000 Response Units (Ru) with less than 1% variation among different channels. In house human CD8A-Fc was captured in vertical orientation at 3 different ligand densities, 10, 5, 2.5 μg/ml for 5 minutes at 30 ul/minute flowrate. All FN3 domains were normalized to a 3 μM concentration, and tested for binding in horizontal orientation. All 6 analyte channels were used for FN3 domains to maximize the screening throughput. The dissociation phase was monitored for 15 minutes at a flow rate of 100 μl/min using PBST as running buffer. […] Data analyses were performed using Bio-Rad ProteOn Manager software (version 3.1.0.6). Raw data were double referenced by subtraction of the interspot (empty chip surface, no protein immobilized or captured) signals to correct the non-specific binding of the FN3 domain to the pre-coated GAH-Fc IgG surface, followed by a double correction using empty channel L6 where no hCD8A-Fc was captured. The processed binding data were locally fit to a 1:1 simple Langmuir binding model to extract the koff for each FN3 domain binding to captured hCD8A-Fc.

[5] = biological target: T1, cynomolgus monkey CD8A on primary …; assay: flow cytometry, cyno CD8+ T cells, 0.2 uM FN3
Description: as §1

T1 sequence (P01732 other isoform, or with tags, fused parts or gaps limits assumed): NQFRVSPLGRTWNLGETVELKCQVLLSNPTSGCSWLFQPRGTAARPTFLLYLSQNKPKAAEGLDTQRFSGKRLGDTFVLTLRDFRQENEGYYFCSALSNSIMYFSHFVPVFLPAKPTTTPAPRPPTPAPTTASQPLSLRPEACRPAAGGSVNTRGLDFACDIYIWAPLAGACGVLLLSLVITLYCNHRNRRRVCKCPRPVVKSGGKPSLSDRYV

B4: P283AR9P1362_G3 (designed binder)
chain: LPAPKNLVVSRVTEDSARLSWVKRATSFDSFLIQYQESEKVGEAIVLTVPGSERSYDLTGLKPGTEYTVSIYGVDVKWEGNRPVASNPLSAIFTT
notes: FN3 domain
- Cyno T-cell Binding 2 uM (MFI) [1]: 35300 MFI
- Human T-cell Binding 0.2 uM (MFI) [2]: 4310 MFI
- Human T-cell Binding 2 uM (MFI) [3]: 18500 MFI
- koff [4]: 9.45e-05 s⁻¹
- Cyno T-cell Binding 0.2 uM (MFI) [5]: 9200 MFI

B5: P282AR9P1356_A4 (designed binder)
chain: B4 chain with A25P, T26N, K77V, W78D, E79Y, G80E, N81G, V84R, A85W
notes: FN3 domain
- Cyno T-cell Binding 2 uM (MFI) [1]: 26400 MFI
- Human T-cell Binding 0.2 uM (MFI) [2]: 4380 MFI
- Human T-cell Binding 2 uM (MFI) [3]: 16700 MFI
- koff [4]: 8.61e-05 s⁻¹
- Cyno T-cell Binding 0.2 uM (MFI) [5]: 8630 MFI

B6: P282AR9P1356_A6 (designed binder)
chain: LPAPKNLVVSRVTEDSARLSWSKTDSSFDSFLIQYQESEKVGEAIVLTVPGSERSYDLTGLKPGTEYTVSIYGVDVVYIEGNPVFSNPLSAIFTT
notes: FN3 domain
- Cyno T-cell Binding 2 uM (MFI) [1]: 31400 MFI
- Human T-cell Binding 0.2 uM (MFI) [2]: 3440 MFI
- Human T-cell Binding 2 uM (MFI) [3]: 10800 MFI
- koff [4]: 9.73e-05 s⁻¹
- Cyno T-cell Binding 0.2 uM (MFI) [5]: 5780 MFI

B9: P282AR9P1356_B9 (designed binder)
chain: LPAPKNLVVSRVTEDSARLSWPEGDRPFFDSFLIQYQESEKVGEAIVLTVPGSERSYDLTGLKPGTEYTVSIYGVDVKWEGNRPVASNPLSAIFTT
notes: FN3 domain
- Cyno T-cell Binding 2 uM (MFI) [1]: 36400 MFI
- Human T-cell Binding 0.2 uM (MFI) [2]: 3670 MFI
- Human T-cell Binding 2 uM (MFI) [3]: 17200 MFI
- koff [4]: 0.000295 s⁻¹
- Cyno T-cell Binding 0.2 uM (MFI) [5]: 5440 MFI

B11: P282AR9P1356_A10 (designed binder)
chain: LPAPKNLVVSRVTEDSARLSWHTATNSFDSFLIQYQESEKVGEAIVLTVPGSERSYDLTGLKPGTEYTVSIYGVDVDYNPTGRPVSSNPLSAIFTT
notes: FN3 domain
- Cyno T-cell Binding 2 uM (MFI) [1]: 10600 MFI
- Human T-cell Binding 0.2 uM (MFI) [2]: 2090 MFI
- Human T-cell Binding 2 uM (MFI) [3]: 4260 MFI
- koff [4]: 0.000291 s⁻¹
- Cyno T-cell Binding 0.2 uM (MFI) [5]: 3120 MFI

Next, values leading:

- Cyno T-cell Binding 2 uM (MFI) [1]: 17300 MFI
- Human T-cell Binding 0.2 uM (MFI) [2]: 1400 MFI
- Human T-cell Binding 2 uM (MFI) [3]: 5540 MFI
- koff [4]: 0.00153 s⁻¹
- Cyno T-cell Binding 0.2 uM (MFI) [5]: 3530 MFI
B1: P283AR9P1362_A3 (designed binder)
chain: LPAPKNLVVSRVTEDSARLSWKRIDSPFDSFLIQYQESEKVGEAIVLTVPGSERSYDLTGLKPGTEYTVSIYGVDVKYDIDSRPISSNPLSAIFTT
notes: FN3 domain

- Cyno T-cell Binding 2 uM (MFI) [1]: 12900 MFI
- Human T-cell Binding 0.2 uM (MFI) [2]: 1580 MFI
- Human T-cell Binding 2 uM (MFI) [3]: 5740 MFI
- koff [4]: 0.000648 s⁻¹
- Cyno T-cell Binding 0.2 uM (MFI) [5]: 2270 MFI
B2: P283AR9P1362_B8 (designed binder)
chain: B1 chain with K22W, R23T, I24S, D25P, S26L
notes: FN3 domain

- Cyno T-cell Binding 2 uM (MFI) [1]: 21200 MFI
- Human T-cell Binding 0.2 uM (MFI) [2]: 2540 MFI
- Human T-cell Binding 2 uM (MFI) [3]: 6310 MFI
- koff [4]: 0.000302 s⁻¹
- Cyno T-cell Binding 0.2 uM (MFI) [5]: 4400 MFI
B3: P283AR9P1362_A4 (designed binder)
chain: B1 chain with K22I, R23G, I24H, P27G
notes: FN3 domain

- Cyno T-cell Binding 2 uM (MFI) [1]: 23700 MFI
- Human T-cell Binding 0.2 uM (MFI) [2]: 3170 MFI
- Human T-cell Binding 2 uM (MFI) [3]: 9200 MFI
- koff [4]: 0.000112 s⁻¹
- Cyno T-cell Binding 0.2 uM (MFI) [5]: 4570 MFI
B7: P283AR9P1362_F8 (designed binder)
chain: B4 chain with V22G, K23Y, R24Y, A25H, T26G, S27H
notes: FN3 domain

- Cyno T-cell Binding 2 uM (MFI) [1]: 19700 MFI
- Human T-cell Binding 0.2 uM (MFI) [2]: 2790 MFI
- Human T-cell Binding 2 uM (MFI) [3]: 11000 MFI
- koff [4]: 0.000186 s⁻¹
- Cyno T-cell Binding 0.2 uM (MFI) [5]: 5520 MFI
B8: P283AR9P1362_C7 (designed binder)
chain: B4 chain with K77R, W78Y, E79N, G80E, N81G, R82Q, V84I, A85W
notes: FN3 domain

- Cyno T-cell Binding 2 uM (MFI) [1]: 46300 MFI
- Human T-cell Binding 0.2 uM (MFI) [2]: 3230 MFI
- Human T-cell Binding 2 uM (MFI) [3]: 14700 MFI
- koff [4]: 0.000114 s⁻¹
- Cyno T-cell Binding 0.2 uM (MFI) [5]: 5700 MFI
B10: P282AR9P1356_H1 (designed binder)
chain: LPAPKNLVVSRVTEDSARLSWIPNPSSFDSFLIQYQESEKVGEAIVLTVPGSERSYDLTGLKPGTEYTVSIYGVDVVFDPVGFPSHSNPLSAIFTT
notes: FN3 domain

- Cyno T-cell Binding 2 uM (MFI) [1]: 13900 MFI
- Human T-cell Binding 0.2 uM (MFI) [2]: 2400 MFI
- Human T-cell Binding 2 uM (MFI) [3]: 5960 MFI
- koff [4]: 0.000158 s⁻¹
- Cyno T-cell Binding 0.2 uM (MFI) [5]: 3360 MFI
B12: P282AR9P1356_D3 (designed binder)
chain: LPAPKNLVVSRVTEDSARLSWTRHETSFDSFLIQYRESEKVGEAIVLTVPGSERSYDLTGLKPGTEYTVSIYGVVVEYDAAGNPKYSNPLSAIFTT
notes: FN3 domain
